Results reported in US12673985B2, “Method for the treatment or prophylaxis of cancer by targeting the extracellular portion of keratin 14 (KRT14) residing on cancer cells” (Hudson Institute of Medical Research, priority 2019, dated 2026).

Tests used:
[1] = tested on: OVCAR4 ovarian cancer cells; experiment: Real time cell analysis (RTCA) of proliferation with cisplatin and mAb AN-17; type: cell-based, human
Procedure: Real time cell analysis (RTCA) was conducted as previously described (PMID: 31443478; Bilandzic et al., Cancers (Basel). 2019; 11(9), E1228) using an xCELLigence RTCA SP 96-well instrument (ACEA Biosciences). Cell lines were synchronized in G0 by overnight incubation in serum-free media and were seeded at 0.5×10^3 cells/0.15 ml/per well. […] Impedance readings were taken every 15 minutes for the experimental duration. mAb AN-17 comprises the heavy chain variable region of SEQ ID NO:3 and the light chain variable region of SEQ ID NO:5, encoded by the nucleic acid sequences of SEQ ID NOs:2 and 4, respectively (see also FIGS. 21 and 22A-22B).

ovarian cancer cells = experiment: Real-time in vitro invasion assay (xCELLigence RTCA) with anti-KRT14 antibodies, rK14 and competing peptides; type: cell-based, human; conditions: for restoration of invasive capacity in competition with anti N-terminal KRT14 antibody: competition assay (FIG. 4B, 5B)
Procedure: xCELLigence Real Time Cell Analyses (RTCA). Real time cell analyses (RTCA) were conducted using an xCELLigence RTCA SP 96-well instrument (ACEA Biosciences). Cell lines were synchronized in Go phase by overnight incubation in serum-free media prior to commencement. For proliferation assays, cells were seeded at 0.5×10^3 cells/0.14 ml/per well (as outlined in the experimental text), and impedance readings taken every 5 minutes for 8 hours (in order to monitor cell adhesion), and subsequently every 15 minutes for 24 hours (to monitor cell proliferation). For invasion assays the upper chamber of a CIM-16 well plate was coated with Matrigel matrix (1:10 in SFM; BD Biosciences, San Jose, CA). Cells were seeded into the upper chamber (as above), with media+/−10% v/v FBS added to the lower chamber. All assays were performed in duplicate or triplicate, with at least three independent experiments.
Using flow cytometry and immunocytochemical staining of intact cells, it was observed that the N terminus of KRT14 is exposed at the cell surface (FIGS. 4A-4B). Consistent with other studies (Papafotiou et al. (2016) supra; Rock et al. (2009) supra), KRT14+ cells represented only a subset of tumor cell population (FIG. 4A). […] Thus, loss of invasive capacity was directly due to binding of the antibody of KRT14. Moreover, this effect is mediated by antibody binding to the N-terminus of KRT14; and the N-terminus was exposed on the external side of cells, accessible to antibody binding.
Antigenicity and hydrophobicity plots were used to examine the first 200 amino acids of KRT14 in silico (FIG. 5A). Five potentially antigenic regions were predicted, and six peptides encompassing to these regions were synthesized for use in further competition assays. Blockade of the N-terminal antibody by peptides #4 and #5 restored invasion (FIG. 5B) and migration (FIG. 5C) of ovarian cancer cells in vitro. […] Based on antibody and peptide competition assays, the surface-exposed region of the KRT14 protein was defined within the amino sequence NH2-[…] (SEQ ID NO:1). […]

Row | Molecule | cell viability and proliferation ([1]; cisplatin alone at 1.25 μg/ml) | cell viability and proliferation ([1]; cisplatin alone at 15 μg/ml or 20 μg/ml) | invasion by ovarian cancer cells in vitro (ovarian cancer cells; antibody or rK14 added exogenously (FIG. 4B)) | restoration of invasive capacity in competition with anti N-terminal KRT14 antibody (ovarian cancer cells) | restoration of invasive capacity in competition with anti N-terminal KRT14 antibody (ovarian cancer cells; listed as recombinant KRT14 protein)
1 | N.N.[Cl][Pt][Cl] [cisplatin, reference compound] | sub-lethal and cells continued to proliferate | complete cell death | – | – | –
2 | rK14: exogenously added, full-length recombinant KRT14 protein (protein) MTTCSRQFTSSSSMKGSCGIGGGIGGGSSRISSVLAGGSCRAPSTYGGGLSVSSSRFSSGGACGLGGGYGGGFSSSSSSFGSGFGGGYGGGLGAGLGGGFGGGFAGGDGLLVGSEKVTMQNLNDRLASYLDKVRALEEANADLEVKIRDWYQRQRPAEIKDYSPYFKTIEDLRNKILTATVDNANVLLQIDNARLAADDFRTKYETELNLRMSVEADINGLRRVLDELTLARADLEMQIESLKEELAYLKKNHEEEMNALRGQVGGDVNVEMDAAPGVDLSRILNEMRDQYEKMAEKNRKDAEEWFFTKTEELNREVATNSELVQSGKSEISELRRTMQNLEIELQSQLSMKASLENSLEETKGRYCMQLAQIQEMIGSVEEQLAQLRCEMEQQNQEYKILLDVKTRLEQEIATYRRLLEGEDAHLSSSQFSSGSQSSRDVTSSSRQIRTKVMDVHDGKVVSTHEQVLRTKN | – | – | had no effect alone | successfully competed with a N-term antibody to restore invasive capacity | could compete for antibody binding, and resorted invasion in vitro
